# B1: xanthosine phosphorylase (xapA; purine nucleoside phosphorylase II, PNP-II) (Escherichia coli K-12) (protein)
# chain: MSQVQFSHNPLFCIDIIKTYKPDFTPRVAFILGSGLGALADQIENAVAISYEKLPGFPVSTVHGHAGELVLGHLQGVPVVCMKGRGHFYEGRGMTIMTDAIRTFKLLGCELLFCTNAAGSLRPEVGAGSLVALKDHINTMPGTPMVGLNDDRFGERFFSLANAYDAEYRALLQKVAKEEGFPLTEGVFVSYPGPNFETAAEIRMMQIIGGDVVGMSVVPEVISARHCDLKVVAVSAITNMAEGLSDVKLSHAQTLAAAELSKQNFINLICGFLRKIA
# notes: ORF from E. coli genomic DNA in pET28a (EcoRI/HindIII), expressed in E. coli Rosetta (DE3), Ni-NTA purified (His-tag), tag removal not described
# Substrate: NC(=O)c1cccnc1
# Test: purified protein
# Format: biochemical, Escherichia coli
# Conditions: 20 mM ribose-1-phosphate, 50 mM MES pH 6.0, 37 °C, 30 min, 0.1 mg/ml xapA, NR synthesis direction
protein,measurement,value
B1,Km,5.81 mM

# Source: PMC3923242, “New function for Escherichia coli xanthosine phophorylase (xapA): genetic and biochemical evidences on its participation in NAD^+ salvage from nicotinamide” (BMC Microbiology, 2014)
